From paper PMC4909252, “High-resolution NMR structures of the domains of Saccharomyces cerevisiae Tho1”

T1: Tho1 N-terminal SAP domain (Saccharomyces cerevisiae, UniProt P40040 1-50)
T1 chain: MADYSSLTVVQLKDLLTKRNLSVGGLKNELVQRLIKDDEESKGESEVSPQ

B1: 30-mer dsRNA (structured_RNA)
RNA: GGACAGCUGUCCCUUCGGGGACAGCUGUCC
B2: random dsDNA 12-mer (dsDNA)
DNA 1: TCCTGATCAGGA
DNA 2: TCCTGATCAGGA

Key:
[1] = target: T1, Tho1 N-terminal SAP domain; experiment: NMR (15N HSQC); 200 uM protein; 15N HSQC, 200 uM protein and oligo; typical NMR buffer 20 mM potassium phosphate pH 6.5, 100 mM NaCl, 5 mM beta-mercaptoethanol, 10% D2O, 25 C; conditions: protein: recombinant; tags: His6-lipoyl fusion removed by TEV; 15N-labelled; called dsRNA
[2] = target: T1, Tho1 N-terminal SAP domain; experiment: NMR (15N HSQC); 200 uM protein, 200 uM DNA; 15N HSQC, 200 uM protein and oligo; typical NMR buffer 20 mM potassium phosphate pH 6.5, 100 mM NaCl, 5 mM beta-mercaptoethanol, 10% D2O, 25 C; conditions: protein: recombinant; tags: His6-lipoyl fusion removed by TEV; 15N-labelled; blunt, self-complementary, 2 copies of one strand

Binder | binding result [1] | binding result [2]
B1 | no binding | 
B2 |  | binds
